# Results published in article PMC10920887, “Natural variation in BnaA9.NF-YA7 contributes to drought tolerance in Brassica napus L”.
# T1: BnaA3.ABF4 (Brassica napus, UniProt X2C209 1-395)
# T1 sequence: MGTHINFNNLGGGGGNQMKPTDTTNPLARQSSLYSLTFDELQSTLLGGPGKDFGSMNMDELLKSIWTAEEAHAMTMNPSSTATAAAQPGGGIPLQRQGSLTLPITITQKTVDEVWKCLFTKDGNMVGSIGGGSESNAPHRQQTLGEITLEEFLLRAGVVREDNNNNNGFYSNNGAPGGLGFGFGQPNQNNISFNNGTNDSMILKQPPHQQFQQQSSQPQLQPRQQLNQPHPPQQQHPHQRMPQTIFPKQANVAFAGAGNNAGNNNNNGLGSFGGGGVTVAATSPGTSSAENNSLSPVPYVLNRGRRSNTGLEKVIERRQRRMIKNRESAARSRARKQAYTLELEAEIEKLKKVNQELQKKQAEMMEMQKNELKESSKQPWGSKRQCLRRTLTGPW
# Biological target: T1, BnaA3.ABF4
# Assay: EMSA; not given in the material
# Conditions: protein: recombinant; tags: GST (N-term, pGEX-4T-1); chain copies: 2; label: biotin
binder,measurement,value
BnaA9.NF-YA7 promoter ABRE probe (dsDNA) DNA 1: ATCTGCCCGTAATCTGCTACGTGCAATCTAAACGCTT DNA 2: AAGCGTTTAGATTGCACGTAGCAGATTACGGGCAGAT,binding result,binds
